Target: EPHB2 (UniProt P29323)
Experiment: phosphorylation enrichment, bacterial display (enrichment ratio); higher = better substrate or ligand; peptides without Tyr show the background
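Also: 11-residue human phosphosite peptides and single-mutation variants displayed on the E. coli surface, counted by deep sequencing, each peptide's frequency after selection divided by its frequency in the unselected input library; frequency after pTyr selection over input frequency; kinase dosed for 20-30% of maximal phosphorylation in three min.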

Chain of EPHB2 (P29323 whole entry, looked up): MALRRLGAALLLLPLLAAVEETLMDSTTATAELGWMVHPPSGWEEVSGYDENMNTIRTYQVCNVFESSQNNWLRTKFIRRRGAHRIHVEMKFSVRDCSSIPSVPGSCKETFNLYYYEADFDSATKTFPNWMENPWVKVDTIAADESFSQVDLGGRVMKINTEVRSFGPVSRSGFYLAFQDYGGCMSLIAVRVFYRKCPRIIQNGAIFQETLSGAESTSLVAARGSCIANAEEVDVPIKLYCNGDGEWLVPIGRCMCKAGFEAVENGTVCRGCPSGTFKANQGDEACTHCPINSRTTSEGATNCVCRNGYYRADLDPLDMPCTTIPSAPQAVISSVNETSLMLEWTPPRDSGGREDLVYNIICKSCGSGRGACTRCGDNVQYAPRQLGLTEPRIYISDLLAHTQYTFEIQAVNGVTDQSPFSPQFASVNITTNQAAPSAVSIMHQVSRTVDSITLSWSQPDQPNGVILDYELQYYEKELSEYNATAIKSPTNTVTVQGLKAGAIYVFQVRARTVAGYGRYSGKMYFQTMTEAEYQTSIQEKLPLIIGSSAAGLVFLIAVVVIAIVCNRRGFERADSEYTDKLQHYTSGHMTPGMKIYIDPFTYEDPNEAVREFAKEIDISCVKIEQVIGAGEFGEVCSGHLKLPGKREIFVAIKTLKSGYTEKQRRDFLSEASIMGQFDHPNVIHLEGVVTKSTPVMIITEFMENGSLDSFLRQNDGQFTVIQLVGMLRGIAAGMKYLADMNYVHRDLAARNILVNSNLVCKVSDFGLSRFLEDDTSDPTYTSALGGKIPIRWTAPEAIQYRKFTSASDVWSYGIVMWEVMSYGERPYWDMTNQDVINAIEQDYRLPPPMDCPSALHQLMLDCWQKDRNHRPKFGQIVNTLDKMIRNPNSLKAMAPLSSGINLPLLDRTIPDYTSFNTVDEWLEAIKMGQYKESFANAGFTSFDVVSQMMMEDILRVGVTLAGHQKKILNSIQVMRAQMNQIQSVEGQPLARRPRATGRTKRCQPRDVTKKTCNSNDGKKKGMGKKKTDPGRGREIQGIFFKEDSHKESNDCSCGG

| Sequence | phosphorylation enrichment |
| --- | --- |
| QVQQIYSDSDL [MIB1_Y376_R371Q] | 2.35 |
| FGSRLYKFAFK [FANCD2_Y458_L456R_YF] | 0.557 |
| SLAARYFNWVS [FLT4_Y1230_YF] | 0.698 |
| VAVVQYSGMGQ [COL6A1_Y878_T881M] | 0.363 |
| LIDTVYSSSSA [OR4C12_Y71] | 0.782 |
| VHFLVYHHHHH [CACNA1H_Y519_H516Y_YF] | 0.661 |
| DVLVEYQGEGR [GNS_Y416] | 0.533 |
| MTEEQYIKMNR [ARFGEF2_Y797_K794E] | 0.502 |
| TSESSYFKSLN [NGEF_Y288_A286S_YF] | 0.37 |
| GGQSVYHVHLH [HINT1_Y109] | 0.487 |
| KALSLYTKLMN [STAM_Y371_E366K] | 0.774 |
| GLPINYTTRRI [LAMA2_Y2894] | 0.441 |
| KMTGRYEMFAR [UPB1_Y362_YF] | 0.556 |
| NFNPNYCFAGK [ALK_Y1096_D1091N_YF] | 1.01 |
| TIQSMYGCDVG [HLA-B_Y123_L119I] | 0.48 |
| DLDLTYIFPNI [PTEN_Y27_YF] | 1.15 |
| LSPNMYNSKLW [TARSL2_Y457] | 0.753 |

| Sequence | phosphorylation enrichment |
| --- | --- |
| HNELYYEEAEH [VANGL1_Y345] | 0.993 |
| PEADKYRLTYA [FGG_Y300] | 1.09 |
| LLTALYFISRG [KCNH2_Y780] | 0.859 |
| KQELVYPNKKL [OPTN_Y356_T357P] | 0.358 |
| QCTSAHPLQPE [NANS_Y188_Y188H] | 0.923 |
| CPYNLYAEQLS [HGD_Y40] | 2.18 |
| RHYVYYYSYLL [PTEN_Y177_R173H] | 2.13 |
| LARDMYDKEYY [MET_Y1230] | 0.627 |
| HLQQSYLPRGT [TEX45_Y396] | 0.773 |
| EPAVLYNLKDR [MYH7_Y103] | 0.537 |
| VTNHIYTWVDP [DFNB31_Y234] | 1.63 |
| CTTIHNNFMCN [TP53_Y234_Y234N_YF] | 0.591 |
| VGTKRYMAPKV [ACVRL1_Y375_E379K] | 0.282 |
| PGLKGYPGLSG [COL4A2_Y306_R304K] | 0.307 |
| KGEDFYYVTCH [FHL1_Y149_C150Y] | 0.729 |
| NVSILYTASQA [CTNNA1_Y222_P219S] | 0.51 |

Target: FGFR1 (UniProt P11362)
Sequence (P11362 whole entry, looked up): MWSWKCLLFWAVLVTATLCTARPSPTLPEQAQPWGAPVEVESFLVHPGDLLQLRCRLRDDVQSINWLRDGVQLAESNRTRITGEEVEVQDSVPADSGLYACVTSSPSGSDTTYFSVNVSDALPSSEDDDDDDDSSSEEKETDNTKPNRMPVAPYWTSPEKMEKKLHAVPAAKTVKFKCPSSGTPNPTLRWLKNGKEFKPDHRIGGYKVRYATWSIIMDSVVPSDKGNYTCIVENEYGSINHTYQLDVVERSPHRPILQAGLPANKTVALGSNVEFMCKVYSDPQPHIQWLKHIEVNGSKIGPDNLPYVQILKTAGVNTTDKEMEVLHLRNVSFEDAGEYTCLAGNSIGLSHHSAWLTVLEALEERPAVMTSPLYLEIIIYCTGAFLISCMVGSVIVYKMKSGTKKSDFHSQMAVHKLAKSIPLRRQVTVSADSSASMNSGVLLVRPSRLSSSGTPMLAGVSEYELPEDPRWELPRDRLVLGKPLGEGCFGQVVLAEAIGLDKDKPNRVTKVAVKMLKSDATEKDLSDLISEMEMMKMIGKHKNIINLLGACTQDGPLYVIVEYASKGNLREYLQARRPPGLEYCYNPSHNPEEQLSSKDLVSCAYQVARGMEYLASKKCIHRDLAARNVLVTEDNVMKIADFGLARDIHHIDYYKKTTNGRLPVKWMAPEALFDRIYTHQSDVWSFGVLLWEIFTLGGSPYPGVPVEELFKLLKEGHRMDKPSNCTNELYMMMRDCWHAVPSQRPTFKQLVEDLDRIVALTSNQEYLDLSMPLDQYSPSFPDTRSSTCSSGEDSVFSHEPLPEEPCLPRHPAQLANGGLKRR
Experiment: as above

| Sequence | phosphorylation enrichment |
| --- | --- |
| QVQQIYSDSDL [MIB1_Y376_R371Q] | 0.85 |
| FGSRLYKFAFK [FANCD2_Y458_L456R_YF] | 0.399 |
| SLAARYFNWVS [FLT4_Y1230_YF] | 0.555 |
| VAVVQYSGMGQ [COL6A1_Y878_T881M] | 0.44 |
| LIDTVYSSSSA [OR4C12_Y71] | 0.979 |
| VHFLVYHHHHH [CACNA1H_Y519_H516Y_YF] | 0.437 |
| DVLVEYQGEGR [GNS_Y416] | 0.545 |
| MTEEQYIKMNR [ARFGEF2_Y797_K794E] | 0.558 |
| TSESSYFKSLN [NGEF_Y288_A286S_YF] | 0.41 |
| GGQSVYHVHLH [HINT1_Y109] | 0.495 |
| KALSLYTKLMN [STAM_Y371_E366K] | 0.555 |
| GLPINYTTRRI [LAMA2_Y2894] | 0.565 |
| KMTGRYEMFAR [UPB1_Y362_YF] | 0.499 |
| NFNPNYCFAGK [ALK_Y1096_D1091N_YF] | 0.548 |
| TIQSMYGCDVG [HLA-B_Y123_L119I] | 0.579 |
| DLDLTYIFPNI [PTEN_Y27_YF] | 3.31 |
| LSPNMYNSKLW [TARSL2_Y457] | 0.75 |

| Sequence | phosphorylation enrichment |
| --- | --- |
| HNELYYEEAEH [VANGL1_Y345] | 1.63 |
| PEADKYRLTYA [FGG_Y300] | 0.888 |
| LLTALYFISRG [KCNH2_Y780] | 0.8 |
| KQELVYPNKKL [OPTN_Y356_T357P] | 0.356 |
| QCTSAHPLQPE [NANS_Y188_Y188H] | 0.966 |
| CPYNLYAEQLS [HGD_Y40] | 0.741 |
| RHYVYYYSYLL [PTEN_Y177_R173H] | 7.03 |
| LARDMYDKEYY [MET_Y1230] | 0.921 |
| HLQQSYLPRGT [TEX45_Y396] | 0.97 |
| EPAVLYNLKDR [MYH7_Y103] | 0.521 |
| VTNHIYTWVDP [DFNB31_Y234] | 3.77 |
| CTTIHNNFMCN [TP53_Y234_Y234N_YF] | 0.51 |
| VGTKRYMAPKV [ACVRL1_Y375_E379K] | 0.391 |
| PGLKGYPGLSG [COL4A2_Y306_R304K] | 0.369 |
| KGEDFYYVTCH [FHL1_Y149_C150Y] | 1.35 |
| NVSILYTASQA [CTNNA1_Y222_P219S] | 0.434 |

System: c-Src
Experiment: as above

| Sequence | phosphorylation enrichment |
| --- | --- |
| QVQQIYSDSDL [MIB1_Y376_R371Q] | 5.36 |
| FGSRLYKFAFK [FANCD2_Y458_L456R_YF] | 0.515 |
| SLAARYFNWVS [FLT4_Y1230_YF] | 0.431 |
| VAVVQYSGMGQ [COL6A1_Y878_T881M] | 0.451 |
| LIDTVYSSSSA [OR4C12_Y71] | 3.25 |
| VHFLVYHHHHH [CACNA1H_Y519_H516Y_YF] | 0.453 |
| DVLVEYQGEGR [GNS_Y416] | 0.464 |
| MTEEQYIKMNR [ARFGEF2_Y797_K794E] | 0.441 |
| TSESSYFKSLN [NGEF_Y288_A286S_YF] | 0.411 |
| GGQSVYHVHLH [HINT1_Y109] | 1.01 |
| KALSLYTKLMN [STAM_Y371_E366K] | 0.393 |
| GLPINYTTRRI [LAMA2_Y2894] | 0.611 |
| KMTGRYEMFAR [UPB1_Y362_YF] | 0.451 |
| NFNPNYCFAGK [ALK_Y1096_D1091N_YF] | 0.472 |
| TIQSMYGCDVG [HLA-B_Y123_L119I] | 0.517 |
| DLDLTYIFPNI [PTEN_Y27_YF] | 3.89 |
| LSPNMYNSKLW [TARSL2_Y457] | 0.573 |

| Sequence | phosphorylation enrichment |
| --- | --- |
| HNELYYEEAEH [VANGL1_Y345] | 0.708 |
| PEADKYRLTYA [FGG_Y300] | 0.604 |
| LLTALYFISRG [KCNH2_Y780] | 1.81 |
| KQELVYPNKKL [OPTN_Y356_T357P] | 0.349 |
| QCTSAHPLQPE [NANS_Y188_Y188H] | 0.461 |
| CPYNLYAEQLS [HGD_Y40] | 6.33 |
| RHYVYYYSYLL [PTEN_Y177_R173H] | 2.18 |
| LARDMYDKEYY [MET_Y1230] | 0.673 |
| HLQQSYLPRGT [TEX45_Y396] | 1.32 |
| EPAVLYNLKDR [MYH7_Y103] | 0.461 |
| VTNHIYTWVDP [DFNB31_Y234] | 3.2 |
| CTTIHNNFMCN [TP53_Y234_Y234N_YF] | 0.439 |
| VGTKRYMAPKV [ACVRL1_Y375_E379K] | 0.304 |
| PGLKGYPGLSG [COL4A2_Y306_R304K] | 0.347 |
| KGEDFYYVTCH [FHL1_Y149_C150Y] | 0.774 |
| NVSILYTASQA [CTNNA1_Y222_P219S] | 0.531 |

Target: Fes (UniProt P07332)
Sequence (P07332 whole entry, looked up): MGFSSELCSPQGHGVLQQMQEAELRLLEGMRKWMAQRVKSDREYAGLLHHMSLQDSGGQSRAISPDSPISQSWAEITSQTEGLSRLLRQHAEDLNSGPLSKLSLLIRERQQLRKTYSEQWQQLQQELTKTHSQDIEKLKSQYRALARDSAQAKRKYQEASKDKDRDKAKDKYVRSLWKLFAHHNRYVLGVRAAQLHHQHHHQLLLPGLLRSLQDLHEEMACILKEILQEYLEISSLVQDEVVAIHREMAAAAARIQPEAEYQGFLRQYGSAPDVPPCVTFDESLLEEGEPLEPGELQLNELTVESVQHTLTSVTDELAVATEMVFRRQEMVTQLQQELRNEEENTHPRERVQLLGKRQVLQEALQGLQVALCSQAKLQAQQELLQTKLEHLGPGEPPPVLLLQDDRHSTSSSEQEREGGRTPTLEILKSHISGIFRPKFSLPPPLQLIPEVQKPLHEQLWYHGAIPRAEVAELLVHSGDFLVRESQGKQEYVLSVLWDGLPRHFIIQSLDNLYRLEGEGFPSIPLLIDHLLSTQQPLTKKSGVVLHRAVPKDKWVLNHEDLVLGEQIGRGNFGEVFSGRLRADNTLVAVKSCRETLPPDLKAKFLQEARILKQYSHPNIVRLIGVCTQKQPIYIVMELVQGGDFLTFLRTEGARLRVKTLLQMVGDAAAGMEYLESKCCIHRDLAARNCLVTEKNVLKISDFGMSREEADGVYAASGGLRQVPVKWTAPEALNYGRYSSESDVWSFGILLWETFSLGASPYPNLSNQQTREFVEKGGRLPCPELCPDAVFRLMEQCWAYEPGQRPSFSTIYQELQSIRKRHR
Experiment: as above

| Sequence | phosphorylation enrichment |
| --- | --- |
| QVQQIYSDSDL [MIB1_Y376_R371Q] | 1.88 |
| FGSRLYKFAFK [FANCD2_Y458_L456R_YF] | 0.651 |
| SLAARYFNWVS [FLT4_Y1230_YF] | 1.26 |
| VAVVQYSGMGQ [COL6A1_Y878_T881M] | 0.757 |
| LIDTVYSSSSA [OR4C12_Y71] | 1.57 |
| VHFLVYHHHHH [CACNA1H_Y519_H516Y_YF] | 1.11 |
| DVLVEYQGEGR [GNS_Y416] | 1.08 |
| MTEEQYIKMNR [ARFGEF2_Y797_K794E] | 1.09 |
| TSESSYFKSLN [NGEF_Y288_A286S_YF] | 0.91 |
| GGQSVYHVHLH [HINT1_Y109] | 0.77 |
| KALSLYTKLMN [STAM_Y371_E366K] | 1.32 |
| GLPINYTTRRI [LAMA2_Y2894] | 0.534 |
| KMTGRYEMFAR [UPB1_Y362_YF] | 0.815 |
| NFNPNYCFAGK [ALK_Y1096_D1091N_YF] | 0.821 |
| TIQSMYGCDVG [HLA-B_Y123_L119I] | 1.04 |
| DLDLTYIFPNI [PTEN_Y27_YF] | 1.34 |
| LSPNMYNSKLW [TARSL2_Y457] | 1.19 |

| Sequence | phosphorylation enrichment |
| --- | --- |
| HNELYYEEAEH [VANGL1_Y345] | 1.53 |
| PEADKYRLTYA [FGG_Y300] | 1.51 |
| LLTALYFISRG [KCNH2_Y780] | 1.69 |
| KQELVYPNKKL [OPTN_Y356_T357P] | 0.743 |
| QCTSAHPLQPE [NANS_Y188_Y188H] | 1.73 |
| CPYNLYAEQLS [HGD_Y40] | 1.34 |
| RHYVYYYSYLL [PTEN_Y177_R173H] | 2.26 |
| LARDMYDKEYY [MET_Y1230] | 1.43 |
| HLQQSYLPRGT [TEX45_Y396] | 1.26 |
| EPAVLYNLKDR [MYH7_Y103] | 0.835 |
| VTNHIYTWVDP [DFNB31_Y234] | 2 |
| CTTIHNNFMCN [TP53_Y234_Y234N_YF] | 0.974 |
| VGTKRYMAPKV [ACVRL1_Y375_E379K] | 0.456 |
| PGLKGYPGLSG [COL4A2_Y306_R304K] | 0.468 |
| KGEDFYYVTCH [FHL1_Y149_C150Y] | 1.43 |
| NVSILYTASQA [CTNNA1_Y222_P219S] | 1.02 |
